Molecular target: the molecule itself
Assay: native gel or EMSA; human SCGB3A2 10 µg on 0.8% agarose gel in TAE, Coomassie Brilliant Blue staining of the gel

B1: recombinant human SCGB3A2 (C1) (natural protein, UniProt Q96PL1 22-93, looked up)
chain: FLINKVPLPVDKLAPLPLDNILPFMDPLKLLLKTLGISVEHLVEGLRKCVNELGPEASEAVKKLLEALSHLV
notes: recombinant human SCGB3A2, lot C1; also called hS2; source: recombinant; in house (APCBio Innovations), Cai et al., 2014
binding result: binds

From publication PMC6286126, “A novel pathway of LPS uptake through syndecan-1 leading to pyroptotic cell death” (eLife, 2018)
